Reference: US20260216328A1, “DISRUPTABLE LINKER COMPOSITIONS, SWITCHABLE BISPECIFIC T CELL NANOENGAGER (SWITCH-BITE) COMPOSITIONS COMPRISING THE SAME, AND METHODS OF USE THEREOF” (The Trustees of the University of Pennsylvania, priority 2023, published 2026)

What was measured:
[1] = Half-life and biodistribution of Blinatumomab and CD3/CD19 SiTE; format: in vivo, mouse
Protocol: FIGS. 17A-17F: half-life and in vivo biodistribution of Blinatumomab. FIGS. 17A-17B: Blinatumomab was labeled with Cy7 and was i.v. injected to healthy untreated mice. 10 μL of blood at 0, 1, 2, 4, 6, 12, 24, 36 and 48 h was collected and imaged using IVIS. The fluorescence signal at different time points were quantified (FIG. 17B). FIG. 17C: the biodistribution of Blinatumomab in healthy mice was also investigated 24 h after Blinatumomab-Cy7 injection. FIG. 17D: In order to mimic a clinical patient treatment, a mouse model was constructed with CD19 expression in the liver and a subcutaneous B-cell lymphoma model. Blinatumomab-Cy7 was i.v. injected at 0 h. The mice were euthanized at 24 h and the distribution of Blinatumomab-Cy7 in major organs and tumour was evaluated. The Blinatumomab-Cy7 mainly accumulates in the liver, spleen and tumour. The distribution of SiTE that targets human CD3 and human CD19 antigen was evaluated in both healthy untreated mice (FIG. 17E) and in a mouse model with CD19 expression in the liver and has a subcutaneous B-cell lymphoma tumour (FIG. 17F), similar results were obtained.
Encouraged by the results from the in vitro experiments, the controllable activity of SiTE was evaluated in vivo. […] It was also analyzed if the biodistribution of SiTE both in healthy NSG mice and in Raji tumour-bearing humanized NSG mice that express CD19 antigen in the liver. […]

[2] = tested on: Raji-Luc-GFP tumour cells; assay: Cytokine release syndrome in humanized NSG-SGM3 mice with Raji-Luc-GFP tumour; format: in vivo, mouse
Protocol: An in vivo imaging system (IVIS) was used to monitor tumour burden in vivo. […] FIGS. 41C-41E: Mouse body weight, temperature and survival curves, respectively. n=10 mice. […] The data in FIGS. 41C-41D and FIGS. 41F-41J were plotted as mean±s.d. (n=10) from three independent experiments. […] P value in FIG. 41E was determined using Log-rank (Mantel-Cox) test.
SiTE and Blinatumomab were also compared with regard to treating symptoms of CRS and neurotoxicity. The humanized mouse model was constructed as before, but this time the piggybac transposon system was not used to express CD19 in the mouse livers. This allowed better analysis of the effects of the SiTE on CRS and neurotoxicity (FIG. 41A). Raji-Luc-GFP cells were i.v. injected at day −14. Blinatumomab, SiTE or PBS were i.v. injected to the mice at day one. Mouse tumour burden, body weight, temperature, and plasma cytokine levels were monitored (FIGS. 41B-41J).

[3] = tested on: Raji-Luc-GFP cells; assay: Antitumour efficacy in normal NSG mice with Raji-Luc-GFP tumour; format: in vivo, mouse; settings: days 1, 3, 5
Source text: FIGS. 43A-43C: comparison of the antitumour efficacy of SITE and Blinatumomab. In order to solely compare the antitumour capacity of Blinatumomab and the SiTE, CD19 antigen was not expressed in mouse liver so BiTNE or SiTE treatment will not induce on-target, off-tumour toxicity. Additionally, normal NSG mice (without humanization) were used to construct the tumour model so the mice will not develop CRS. FIG. 43A: Raji-Luc-GFP cells were i.v. injected to mice at day −14. Tumour bearing mice were treated with Blinatumomab or SiTE at days 1, 3, or 5. FIG. 43B: mice were imaged using IVIS at days 0, 5, 9, and 13 to monitor the tumour burden level. c, Quantification of the luminescence levels in FIG. 43B. The data in FIG. 43C were plotted as mean s.d. (n=5) f. P value in FIG. 43C was determined using one-way ANOVA.
In order to specifically assess the antitumour efficacy of Blinatumomab and the SiTE, expression of the CD19 antigen in the mouse liver was refrained from. By employing this approach, it was ensured that treatment with either Blinatumomab or SiTE would not elicit on-target, off-tumour toxicity. To further avoid the effect of CRS on the evaluation of the therapeutic outcome of Blinatumomab and SiTE, normal NSG mice were employed, devoid of humanization.

[4] = tested on: Raji-Luc-GFP tumour cells; assay: Blinatumomab vaccine effect and CRS after discontinuation; format: in vivo, mouse
Protocol: Raji tumour cells and human T cells were co-cultured in serum-free medium and were treated with Blinatumomab for 24 h. After that, the cell culture medium was collected and the proteins in the medium were analyzed using proteomics. FIG. 44A: Large amount of damage associated molecule patterns (DAMPs); and FIG. 44B: tumour associated antigens were detected in the cell culture medium. FIG. 44C: Raji tumour bearing humanized NSG mice were treated with three doses of Blinatumomab. […] Then, Raji-Luc-GFP cell viability was determined. […] The data in FIG. 44C are presented as mean±s.d. (n=5) f. P value in FIG. 44C was determined using one-way ANOVA.
FIGS. 45A-45C: CRS symptoms cannot be stopped by simply stop the administration of Blinatumomab. FIG. 45A: humanized NSG mice were i.v. injected with Raji-Luc-GFP cells on day −14. Then Blinatumomab were administrated at days 1, 3, or 5. FIG. 45B: IL-6 level in mouse blood were monitored. FIG. 45C: survival curve.
It was also investigated if Blinatumomab could also induce a vaccine effect. […] It was also questioned whether CRS could be halted by simply discontinuing the administration of Blinatumomab, owing to its inherent short half-life. […] The pronounced targeting of T cells and CD19-expressing cells, coupled with heightened activation of many immune cells, served to amplify the cytokine cascade, rendering it impervious to interruption by the mere discontinuation of Blinatumomab usage. These findings underscore the critical exigency for the development of an alternative to Blinatumomab, one that can be switched off as needed, in this rapidly evolving research field.

[5] = mouse, in vivo; cited from earlier work
[6] = tested on: Raji-Luc-GFP tumour cells; assay: Humanized immune system mice with liver CD19 and Raji-Luc-GFP tumour; settings: SiTE targets human CD3/CD19
[7] = tested on: Raji-Luc-GFP tumour cells; settings: around day 33, after SiTE
Protocol: FIG. 42A: NSG-SGM3 mice were treated with Busulfan at day −50 to remove mouse bone marrow. At day −49, 10^5 human CD34^+ fetal liver cells were i.v. injected to let the mouse develop a human immune system. 10^6 Raji-Luc-GFP tumour cells were i.v. injected at day −14. At days 1, 3, and 5, PBS or SiTE was i.v. injected (in the PBS group, only PBS was injected to tumour-bearing mice). […] FIGS. 42B-42E: mouse body weight, temperature, IL-6 levels, and mouse survival curves, respectively. n=10 mice. The red stars in FIG. 42B indicate that mice were euthanized. FIG. 42F: measurements of IL-1 in mouse blood at different time points. n=10 mice. […] Brain H&E staining (FIG. 42I) and human CD68 immunohistochemistry (FIG. 42J) images of mice at day 35. The data in FIGS. 42B-42F were plotted as mean z s.d. (n=10) from three independent experiments.
It was also evaluated if the SiTE can help control neurotoxicity. In the clinic, neurotoxicity is usually delayed and occurs several […] after CRS onset. Tumour-bearing mice were treated with SiTE at days 1, 3 and 5 (FIG. 42A). […] Rather than use a preventative strategy for treating CRS (FIGS. 40A-40M), here Tocilizumab was used to treat CRS when symptoms presented, so that it can be compared directly with the SiTE strategy. […] Studies have shown that IL-1 is the major cause of neurotoxicity.

Q: Which biodistribution ([1]; Raji tumour-bearing humanized mice expressing human CD19 in the liver) does the source give for “Blinatumomab: first BiTE to receive FDA approval; links CD3-positive T cells to CD19-expressing B cell cancers” here?
A: The biodistribution was “high accumulation of Blinatumomab in the tumours, livers, and spleens”.

Q: What about the biodistribution ([1]; healthy mice with a humanized immune system, i.v.) of the same substance?
A: The biodistribution was “accumulated greatly in the spleens”.

Q: What about the “fever and body weight” value ([2]; 5 mg/kg, days 1, 3, 5, SiTE targets human CD3/CD19) of the same substance?
A: Its value is “induced high fever and body weight loss”.

Q: What about the “plasma IL-6, IFN-γ, TNF-α, CXCL10 and CCL3 concentrations” value ([2]; after treatment) of the same substance?
A: The value was “greatly increased”.

Q: And the tumour growth [3]?
A: Its tumour growth is “substantial suppression of tumour growth”.

Q: What about the “release of DAMPs and tumour antigens from tumour cells” value ([4]; high dose, Raji cells and human T cells, 24 h) of the same substance?
A: Its value is “substantial release of DAMPs and tumour antigens”.

Q: And the “tumour cell killing by T cells from treated mice” value ([4]; high dose, vs T cells from PBS-treated mice)?
A: Its value is “substantial tumour cell killing”.

Q: What about the “serum IL-6” value ([4]; humanized NSG mice, persisted after cessation) of the same substance?
A: The value was “notable elevation of IL-6 levels”.

Q: And the half-life [5]?
A: Its half-life is 2.11 h.

Q: And the “tumour cell killing (IVIS)” value ([6]; 5 mg/kg i.v. x3, Tocilizumab pre-treatment)?
A: The value was “induced effective tumour cell killing”.

Q: And the “on-target, off-tumour toxicity and CRS” value ([6]; 5 mg/kg i.v. x3)?
A: The value was “not only induced on-target, off-tumour toxicity in the liver, but led to strong CRS”.

Q: Which “signs of lethal neurological syndrome” value [7] does the source give for “Tocilizumab: commercialized drug for CRS treatment; antibody for the IL-6 receptor” here?
A: The value was “developed sudden paralysis”.
